Results from article PMC12051055, “Spectroscopy and crystallography define carotenoid oxygenases as a new subclass of mononuclear non-heme Fe^II enzymes” (The Journal of Biological Chemistry, 2025).

Substrate: CC=Cc1ccc(O)c(OC)c1
Assay: steady-state kinetics of cleavage to vanillin by purified enzyme (apparent Km)
Assay type: biochemical, Neurospora crassa
Conditions: Fe(II)
Source text: steady-state kinetics of cleavage to vanillin by purified enzyme (apparent Km) on CAO1 (Neurospora crassa carotenoid oxygenase 1) | wildtype and T151V steady-state kinetics toward isoeugenol

B1: CAO1 (Neurospora crassa carotenoid oxygenase 1) (Neurospora crassa OR74A) (protein)
chain: MAEYVFSDAPKDSHGNGVKDAVPGKQPEELPPAPRYFQGENTAGFMRPVRFEGDITNLEVVGEIPKSIEGTFYRVMPEPHLPSFIPNDPWFNGDGNISGFYFKDGHVDLKQRYVRTEKFVREAEARRSLLGKYRNRYTDLVEFKIRSTANTNIVYWRGQLLALKEDSPPYAMDPETLETFGVYDFDGQLPSLTFTAHPKFDPVTREMVCFGYEAKGDGTRDICYYSFGPDGKIAETVWLVSPVCGMIHDFAVTENFVIFPIIPLVCDVERMKQGGDHWQWDYSIPMYIGVLPRRGAQGSDVKWFEAPHGFAGHVANAFEDDKGHIQLQMAYAKDNVFFWWPDANGKGPRPGEVEAHFANFVLDYQSDKLPLAEPTYLVDDDMEFPRIDDRVATRKHKHTFFCIFDRKPGVTDFEFVMPRAGGGAPMSNGLAHLNHETGDIQRYLPGPRKLTGECIFIPRNSEAAEGDGYVMVLLANYEDMCSELAVLDTKDLTNEVALIKLPVRLRPGLHGNWVDKSDVDGHPAPL
**Q.** How did the Km turn out when B1 was run?
**A.** Its Km is 86.26 ± 13.49 µM.
